Columns and labels:
Experiment in all cases: cell-based or functional assay
[1] = target: Advate (rec. FVIII from Shire) (UniProt P00451)
[2] = target: ReFacto (rec. FVIII from Pfizer) (UniProt P00451)
[3] = target: CSL627 (recombinant B-Domain-deleted single chain FVIII, rVIII-SingleChain) (Homo sapiens (Human)) (UniProt P00451)
[4] = target: Helixate (rec. FVIII from CSL Behring) (UniProt P00451)

IC50, inhibition of factor VIII uptake in MDDCs [1] | IC50, inhibition of factor VIII uptake in MDDCs [2] | IC50, inhibition of factor VIII uptake in MDDCs [3] | IC50, inhibition of factor VIII uptake in MDDCs [4] | reduction of CSL627 antigen presentation, HLA-DQB1 restricted peptide clusters [3] | reduction of CSL627 antigen presentation, peptide clusters (printed HLA-DQB1 a second time) [3] | reduction of CSL627 antigen presentation, unique HLA-DPB1 bound peptides [3] | reduction of CSL627 antigen presentation, unique HLA-DQB1 bound peptides [3] | Substance
2230 nM | 1570 nM | 1720 nM | 1690 nM | – | – | – | – | CSL626 (truncated VWF (764-1242)-albumin fusion, dimer)
769 nM | 778 nM | 750 nM | 552 nM | – | – | – | – | CSL650 (rec. VWF-albumin fusion from CSL Behring)
– | 963 nM | 744 nM | 823 nM | 10 fold | 3.5 fold | 14.2 fold | 21.7 fold | plasma-derived von Willebrand Factor (pdVWF; BIOSTATE, human plasma derived VWF from CSL Behring) (from UniProt P04275 23-2813)

— patent publication US20200197495A1
